Data as given in US9637764B2, “Methods of producing 7-carbon chemicals via carbon chain elongation associated with cyclohexane carboxylate synthesis” (INVISTA North America S.á r.l., priority 2012, dated 2017).
Blank lines part the entries; values can stand above or below the molecule they belong to.

Columns and labels:
Assay type in all cases: biochemical
[1] = ω-transaminase activity assay, 7-aminoheptanol to 7-oxoheptanol, L-alanine formation by RP-HPLC; details: for ω-transaminase activity for converting 7-aminoheptanol to 7-oxoheptanol: cell free extract, 10 mM 7-aminoheptanol, 10 mM pyruvate, pH=7.5, 25° C., 4 h, against the empty vector control, FIG. 19; for ω-transaminase accepts 7-oxoheptanol and forms 7-aminoheptanol, concluded from reversibility: conclusion given the reversibility of the ω-transaminase activity (Example 2)
Procedure: A nucleotide sequence encoding an N-terminal His-tag was added to the Chromobacterium violaceum, Pseudomonas syringae and Rhodobacter sphaeroides genes encoding the ω-transaminases of SEQ ID NOs: 8, 10 and 11, respectively (see FIGS. 7F and 7G) such that N-terminal HIS tagged ω-transaminases could be produced. The modified genes were cloned into a pET21a expression vector under the T7 promoter. Each expression vector was transformed into a BL21[DE3] E. coli host. Each resulting recombinant E. coli strain were cultivated at 37° C. in a 250 mL shake flask culture containing 50 mL LB media and antibiotic selection pressure, with shaking at 230 rpm. Each culture was induced overnight at 16° C. using 1 mM IPTG.
(§1) The pellet from each induced shake flask culture was harvested via centrifugation. Each pellet was resuspended and lysed via sonication. The cell debris was separated from the supernatant via centrifugation and the cell free extract was used immediately in enzyme activity assays.
(§2) Enzyme activity assays in the reverse direction (i.e., 7-aminoheptanol to 7-oxoheptanol) were performed in a buffer composed of a final concentration of 50 mM HEPES buffer (pH=7.5), 10 mM 7-aminoheptanol, 10 mM pyruvate, and 100 μM pyridoxyl 5′ phosphate. Each enzyme activity assay reaction was initiated by adding cell free extract of the ω-transaminase gene product or the empty vector control to the assay buffer containing the 7-aminoheptanol and then incubated at 25° C. for 4 h, with shaking at 250 rpm. The formation of L-alanine was quantified via RP-HPLC.

[2] = ω-transaminase activity assay, forward direction (pimelate semialdehyde to 7-aminoheptanoate), pyruvate formation by RP-HPLC; details: for ω-transaminase activity for converting pimelate semialdehyde to 7-aminoheptanoate: cell free extract, 10 mM pimelate semialdehyde, 10 mM L-alanine, pH=7.5, 25° C., 4 h, against the empty vector control, FIG. 16; for ω-transaminase accepts pimelate semialdehyde and synthesizes 7-aminoheptanoate, concluded from the reversibility of the activity: conclusion from confirmed reversibility
Procedure: (§3) A sequence encoding an N-terminal His-tag was added to the genes from Chromobacterium violaceum, Pseudomonas syringae, Rhodobacter sphaeroides, and Vibrio Fluvialis encoding the ω-transaminases of SEQ ID NOs: 8, 10, 11 and 13, respectively (see FIGS. 7F and 7G) such that N-terminal HIS tagged ω-transaminases could be produced. Each of the resulting modified genes was cloned into a pET21a expression vector under control of the T7 promoter and each expression vector was transformed into a BL21[DE3] E. coli host. The resulting recombinant E. coli strains were cultivated at 37° C. in a 250 mL shake flask culture containing 50 mL LB media and antibiotic selection pressure, with shaking at 230 rpm. Each culture was induced overnight at 16° C. using 1 mM IPTG.
as §1
Enzyme activity in the forward direction (i.e., pimelate semialdehyde to 7-aminoheptanoate) was confirmed for the transaminases of SEQ ID NO 10, SEQ ID NO 11 and SEQ ID NO 13. Enzyme activity assays were performed in a buffer composed of a final concentration of 50 mM HEPES buffer (pH=7.5), 10 mM pimelate semialdehyde, 10 mM L-alanine and 100 μM pyridoxyl 5′ phosphate. Each enzyme activity assay reaction was initiated by adding a cell free extract of the ω-transaminase gene product or the empty vector control to the assay buffer containing the pimelate semialdehyde and incubated at 25° C. for 4 h, with shaking at 250 rpm. The formation of pyruvate was quantified via RP-HPLC.

[3] = ω-transaminase activity assay, reverse direction (7-aminoheptanoate to pimelate semialdehyde), L-alanine formation by RP-HPLC; details: cell free extract, 10 mM 7-aminoheptanoate, 10 mM pyruvate, pH=7.5, 25° C., 4 h; against the empty vector control; FIG. 15
Procedure: as §3, §1
as §2, with “7-aminoheptanoate” for “7-aminoheptanol”, “pimelate semialdehyde)” for “7-oxoheptanol)”, “7-aminoheptanoate,” for “7-aminoheptanol,”, “pyruvate” for “pyruvate,”, “and” for “and then”, “L-alanine from pyruvate” for “L-alanine”

[4] = Carboxylate reductase activity assay, N7-acetyl-7-aminoheptanoate to N7-acetyl-7-aminoheptanal (NADPH consumption, absorbance at 340 nm); details: purified enzyme enhanced by the gene product of sfp, 2 mM N7-acetyl-7-aminoheptanoate, 1 mM ATP, 1 mM NADPH, pH=7.5, room temperature, 20 min; against the empty vector control; FIG. 12
Procedure: The activity of each of the N-terminal His-tagged carboxylate reductases of SEQ ID NOs: 3, 6, and 7 (see Examples 4, and FIGS. 7B, 7E, and 7F) for converting N7-acetyl-7-aminoheptanoate to N7-acetyl-7-aminoheptanal was assayed in triplicate in a buffer composed of a final concentration of 50 mM HEPES buffer (pH=7.5), 2 mM N7-acetyl-7-aminoheptanoate, 10 mM MgCl2, 1 mM ATP, and 1 mM NADPH. The assays were initiated by adding purified carboxylate reductase and phosphopantetheine transferase or the empty vector control to the assay buffer containing the N7-acetyl-7-aminoheptanoate then incubated at room temperature for 20 min. The consumption of NADPH was monitored by absorbance at 340 nm.

ω-transaminase activity for converting 7-aminoheptanol to 7-oxoheptanol [1]: accepted 7-aminoheptanol as substrate
ω-transaminase accepts 7-oxoheptanol and forms 7-aminoheptanol, concluded from reversibility [1]: accept 7-oxoheptanol as substrate
ω-transaminase activity for converting 7-aminoheptanoate to pimelate semialdehyde [3]: accepted 7-aminoheptanote as substrate
Molecule: SEQ ID NO 11: Rhodobacter sphaeroides ω-transaminase, Genbank Accession No. ABA81135.1
ω-transaminase activity for converting pimelate semialdehyde to 7-aminoheptanoate [2]: accepted pimelate semialdehyde as substrate
ω-transaminase accepts pimelate semialdehyde and synthesizes 7-aminoheptanoate, concluded from the reversibility of the activity [2]: accepted pimelate semialdehyde as substrate and synthesized 7-aminoheptanoate

B1: SEQ ID NO 3: Mycobacterium smegmatis carboxylate reductase, Genbank Accession No. ABK71854.1 (protein, listed as Mycobacterium smegmatis)
chain: MTSDVHDATDGVTETALDDEQSTRRIAELYATDPEFAAAAPLPAVVDAAHKPGLRLAEILQTLFTGYGDRPALGYRARELATDEGGRTVTRLLPRFDTLTYAQVWSRVQAVAAALRHNFAQPIYPGDAVATIGFASPDYLTLDLVCAYLGLVSVPLQHNAPVSRLAPILAEVEPRILTVSAEYLDLAVESVRDVNSVSQLVVFDHHPEVDDHRDALARAREQLAGKGIAVTTLDAIADEGAGLPAEPIYTADHDQRLAMILYTSGSTGAPKGAMYTEAMVARLWTMSFITGDPTPVINVNFMPLNHLGGRIPISTAVQNGGTSYFVPESDMSTLFEDLALVRPTELGLVPRVADMLYQHHLATVDRLVTQGADELTAEKQAGAELREQVLGGRVITGFVSTAPLAAEMRAFLDITLGAHIVDGYGLTETGAVTRDGVIVRPPVIDYKLIDVPELGYFSTDKPYPRGELLVRSQTLTPGYYKRPEVTASVFDRDGYYHTGDVMAETAPDHLVYVDRRNNVLKLAQGEFVAVANLEAVFSGAALVRQIFVYGNSERSFLLAVVVPTPEALEQYDPAALKAALADSLQRTARDAELQSYEVPADFIVETEPFSAANGLLSGVGKLLRPNLKDRYGQRLEQMYADIAATQANQLRELRRAAATQPVIDTLTQAAATILGTGSEVASDAHFTDLGGDSLSALTLSNLLSDFFGFEVPVGTIVNPATNLAQLAQHIEAQRTAGDRRPSFTTVHGADATEIRASELTLDKFIDAETLRAAPGLPKVTTEPRTVLLSGANGWLGRFLTLQWLERLAPVGGTLITIVRGRDDAAARARLTQAYDTDPELSRRFAELADRHLRVVAGDIGDPNLGLTPEIWHRLAAEVDLVVHPAALVNHVLPYRQLFGPNVVGTAEVIKLALTERIKPVTYLSTVSVAMGIPDFEEDGDIRTVSPVRPLDGGYANGYGNSKWAGEVLLREAHDLCGLPVATFRSDMILAHPRYRGQVNVPDMFTRLLLSLLITGVAPRSFYIGDGERPRAHYPGLTVDFVAEAVTTLGAQQREGYVSYDVMNPHDDGISLDVFVDWLIRAGHPIDRVDDYDDWVRRFETALTALPEKRRAQTVLPLLHAFRAPQAPLRGAPEPTEVFHAAVRTAKVGPGDIPHLDEALIDKYIRDLREFGLI
carboxylate reductase activity for converting N7-acetyl-7-aminoheptanoate to N7-acetyl-7-aminoheptanal [4]: accepted N7-acetyl-7-aminoheptanoate as substrate

ω-transaminase activity for converting 7-aminoheptanol to 7-oxoheptanol [1]: accepted 7-aminoheptanol as substrate
ω-transaminase accepts 7-oxoheptanol and forms 7-aminoheptanol, concluded from reversibility [1]: accept 7-oxoheptanol as substrate
ω-transaminase activity for converting 7-aminoheptanoate to pimelate semialdehyde [3]: accepted 7-aminoheptanote as substrate
B2: SEQ ID NO 8: Chromobacterium violaceum ω-transaminase, Genbank Accession No. AAQ59697.1 (protein, listed as Chromobacterium violaceum)
chain: MQKQRTTSQWRELDAAHHLHPFTDTASLNQAGARVMTRGEGVYLWDSEGNKIIDGMAGLWCVNVGYGRKDFAEAARRQMEELPFYNTFFKTTHPAVVELSSLLAEVTPAGFDRVFYTNSGSESVDTMIRMVRRYWDVQGKPEKKTLIGRWNGYHGSTIGGASLGGMKYMHEQGDLPIPGMAHIEQPWWYKHGKDMTPDEFGVVAARWLEEKILEIGADKVAAFVGEPIQGAGGVIVPPATYWPEIERICRKYDVLLVADEVICGFGRTGEWFGHQHFGFQPDLFTAAKGLSSGYLPIGAVFVGKRVAEGLIAGGDFNHGFTYSGHPVCAAVAHANVAALRDEGIVQRVKDDIGPYMQKRWRETFSRFEHVDDVRGVGMVQAFTLVKNKAKRELFPDFGEIGTLCRDIFFRNNLIMRACGDHIVSAPPLVMTRAEVDEMLAVAERCLEEFEQTLKARGLA
ω-transaminase accepts pimelate semialdehyde and synthesizes 7-aminoheptanoate, concluded from the reversibility of the activity [2]: accepted pimelate semialdehyde as substrate and synthesized 7-aminoheptanoate

ω-transaminase activity for converting 7-aminoheptanoate to pimelate semialdehyde [3]: accepted 7-aminoheptanote as substrate
B3: SEQ ID NO 13: Vibrio fluvialis ω-transaminase, Genbank Accession No. AEA39183.1 (protein, listed as Vibrio fluvialis)
chain: MNKPQSWEARAETYSLYGFTDMPSLHQRGTVVVTHGEGPYIVDVNGRRYLDANSGLWNMVAGFDHKGLIDAAKAQYERFPGYHAFFGRMSDQTVMLSEKLVEVSPFDSGRVFYTNSGSEANDTMVKMLWFLHAAEGKPQKRKILTRWNAYHGVTAVSASMTGKPYNSVFGLPLPGFVHLTCPHYWRYGEEGETEEQFVARLARELEETIQREGADTIAGFFAEPVMGAGGVIPPAKGYFQAILPILRKYDIPVISDEVICGFGRTGNTWGCVTYDFTPDAIISSKNLTAGFFPMGAVILGPELSKRLETAIEAIEEFPHGFTASGHPVGCAIALKAIDVVMNEGLAENVRRLAPRFEERLKHIAERPNIGEYRGIGFMWALEAVKDKASKTPFDGNLSVSERIANTCTDLGLICRPLGQSVVLCPPFILTEAQMDEMFDKLEKALDKVFAEVA
ω-transaminase activity for converting pimelate semialdehyde to 7-aminoheptanoate [2]: accepted pimelate semialdehyde as substrate
ω-transaminase accepts pimelate semialdehyde and synthesizes 7-aminoheptanoate, concluded from the reversibility of the activity [2]: accepted pimelate semialdehyde as substrate and synthesized 7-aminoheptanoate

ω-transaminase activity for converting 7-aminoheptanol to 7-oxoheptanol [1]: accepted 7-aminoheptanol as substrate
ω-transaminase accepts 7-oxoheptanol and forms 7-aminoheptanol, concluded from reversibility [1]: accept 7-oxoheptanol as substrate
ω-transaminase activity for converting 7-aminoheptanoate to pimelate semialdehyde [3]: accepted 7-aminoheptanote as substrate
B4: SEQ ID NO 10: Pseudomonas syringae ω-transaminase, Genbank Accession No. AAY39893.1 (protein, listed as Pseudomonas syringae)
chain: MSANNPQTLEWQALSSEHHLAPFSDYKQLKEKGPRIITRAEGVYLWDSEGNKILDGMSGLWCVAIGYGREELADAASKQMRELPYYNLFFQTAHPPVLELAKAISDIAPEGMNHVFFTGSGSEGNDTMLRMVRHYWALKGQPNKKTIISRVNGYHGSTVAGASLGGMTYMHEQGDLPIPGVVHIPQPYWFGEGGDMTPDEFGIWAAEQLEKKILELGVENVGAFIAEPIQGAGGVIVPPDSYWPKIKEILSRYDILFAADEVICGFGRTSEWFGSDFYGLRPDMMTIAKGLTSGYVPMGGLIVRDEIVAVLNEGGDFNHGFTYSGHPVAAAVALENIRILREEKIVERVRSETAPYLQKRLRELSDHPLVGEVRGVGLLGAIELVKDKTTRERYTDKGAGMICRTFCFDNGLIMRAVGDTMIIAPPLVISFAQIDELVEKARTCLDLTLAVLQG
ω-transaminase activity for converting pimelate semialdehyde to 7-aminoheptanoate [2]: accepted pimelate semialdehyde as substrate
ω-transaminase accepts pimelate semialdehyde and synthesizes 7-aminoheptanoate, concluded from the reversibility of the activity [2]: accepted pimelate semialdehyde as substrate and synthesized 7-aminoheptanoate
